Test results from article PMC9833669.
pKd: −log10 of the molar value.

Molecular target: recombinant extracellular domain of the human AXL protein (tyrosine protein kinase receptor UFO) (human) (UniProt P30530)
Test: BLI

Substance: GST-VP1u^(1-227aa) (glutathione S-transferase fused to the B19V VP1 unique region) (from UniProt Q9PZT0 1-227) (domain or fragment)
- pKd: 6.99
